Numbering of substitutions follows the chain as printed.
B1: CD3 × CD33-BspAb115 (bispecific antibody)
chain 1: NFMLTQPHSVSESPGKTVTISCTRTSGSIASNYVQWYQQRPGSSPTTVIYEDNQRPSGVPDRFSGSIDSSSNSASLTISGLKTEDEAAYYCQSYDRSNRVFGCGTKLTVLGGGGSGGGGSGGGGSGGGGSQVQLQESGPGLVKPSETLSLTCTVSGGSISSYYWSWIRQPAGKCLEWIGRIYTSGSTKYNPSLKSRVTMSVDTSKNQFSLKLISVTAADTAVYFCARERIRDLYFDYWGQGTLVTVSSDKTHTCPPCPAPEFEGGPSVFLFPPKPKDTLMISRTPEVTCVVVDVSHEDPEVKFNWYVDGVEVHNAKTKPREEQYNSTYRVVSVLTVLHQDWLNGKEYKCKVSNKALPASIEKTISKAKGQPREPQVYTLPPCREEMTKNQVSLWCLVKGFYPSDIAVEWESNGQPENNYKTTPPVLDSDGSFFLYSKLTVDKSRWQQGNVFSCSVMHEALHNHYTQKSLSLSPGK
chain 2: EVQLVQSGAEVKKPGSSVKVSCKASGYTITDSNIHWVRQAPGQSLEWIGYIYPYNGGTDYNQKFKNRATLTVDNPTNTAYMELSSLRSEDTAFYYCVNGNPWLAYWGQGTLVTVSSASTKGPSVFPLAPSSKSTSGGTAALGCLVKDYFPEPVTVSWNSGALTSGVHTFPAVLQSSGLYSLSSVVTVPSSSLGTQTYICNVNHKPSNTKVDKRVEPKSCDKTHTCPPCPAPEFEGGPSVFLFPPKPKDTLMISRTPEVTCVVVDVSHEDPEVKFNWYVDGVEVHNAKTKPREEQYNSTYRVVSVLTVLHQDWLNGKEYKCKVSNKALPASIEKTISKAKGQPREPQVCTLPPSREEMTKNQVSLSCAVKGFYPSDIAVEWESNGQPENNYKTTPPVLDSDGSFFLVSKLTVDKSRWQQGNVFSCSVMHEALHNRFTQKSLSLSPGK
chain 3: DIQLTQSPSTLSASVGDRVTITCRASESLDNYGIRFLTWFQQKPGKAPKLLMYAASNQGSGVPSRFSGSGSGTEFTLTISSLQPDDFATYYCQQTKEVPWSFGQGTKVEVKRTVAAPSVFIFPPSDEQLKSGTASVVCLLNNFYPREAKVQWKVDNALQSGNSQESVTEQDSKDSTYSLSSTLTLSKADYEKHKVYACEVTHQGLSSPVTKSFNRGEC
B2: Low affinity Control (Control Humanized anti-CD3 (low affinity) scFv-Fc knob/TM with gemtuzumab arm) (bispecific antibody)
scFv: EVQLVESGGGLVQPGGSLRLSCAASGFTFSTYAMNWVRQAPGKGLEWVGRIRSKYNNYATYYADSVKGRFTISRDDSKNTLYLQMNSLRAEDTAVYYCVRHGNFGDSYVSWFDYWGQGTLVTVSSGKPGSGKPGSGKPGSGKPGSQAVVTQEPSLTVSPGGTVTLTCGSSTGAVTTSNYANWVQQKPGKSPRGLIGGTNKRAPGVPARFSGSLLGGKAALTISGAQPEDEADYYCALWYSNHWVFGGGTKLTVLGGGGSDKTHTCPPCPAPEFEGGPSVFLFPPKPKDTLMISRTPEVTCVVVDVSHEDPEVKFNWYVDGVEVHNAKTKPREEQYNSTYRVVSVLTVLHQDWLNGKEYKCKVSNKALPASIEKTISKAKGQPREPQVYTLPPCREEMTKNQVSLWCLVKGFYPSDIAVEWESNGQPENNYKTTPPVLDSDGSFFLYSKLTVDKSRWQQGNVFSCSVMHEALHNHYTQKSLSLSPGK
heavy: B1 chain 2
light: B1 chain 3
B3: CD3 × CD33-BspAb125 (bispecific antibody)
chain 1: not shown
chain 2: B1 chain 2
chain 3: B1 chain 3
B4: High affinity Control (Control Humanized anti-CD3 (high affinity) scFv-Fc knob/TM with gemtuzumab arm) (bispecific antibody)
scFv: B2 scFv with D113A
heavy: B1 chain 2
light: B1 chain 3
B5: CD3 × CD33-BspAb71 (bispecific antibody)
chain 1: EVQLVESGGGLVKPGGSLRLSCAASGFTFSSYSMNWVRQAPGKCLEWVSSISRSSSYIYYADSVKGRFTLSRDNAKNSLYLQMNSLRGEDTAIYYCGRDGKGAIFLDYWGQGTLVTVSSGGGGSGGGGSGGGGSGGGGSSYELTQPPSVSVSPGQTARITCSGDALPKKYAYWYQQKSGQAPVLVIYEDSKRPSGIPERFSGSSSGTMATLTISGAQVEDEADYYCYSTHSSGNHRVFGCGTKLTVLDKTHTCPPCPAPEFEGGPSVFLFPPKPKDTLMISRTPEVTCVVVDVSHEDPEVKFNWYVDGVEVHNAKTKPREEQYNSTYRVVSVLTVLHQDWLNGKEYKCKVSNKALPASIEKTISKAKGQPREPQVYTLPPCREEMTKNQVSLWCLVKGFYPSDIAVEWESNGQPENNYKTTPPVLDSDGSFFLYSKLTVDKSRWQQGNVFSCSVMHEALHNHYTQKSLSLSPGK
chain 2: B1 chain 2
chain 3: B1 chain 3

How the values were obtained:
[1] = target: T1, human CD3 (on human Pan-T cells or donor PBMC) (human, UniProt P07766 23-207; P04234 22-171; P09693 23-182; P20963 22-164); test: cell-based or functional assay
T1 sequence (P07766 23-207, chain 1 of 4): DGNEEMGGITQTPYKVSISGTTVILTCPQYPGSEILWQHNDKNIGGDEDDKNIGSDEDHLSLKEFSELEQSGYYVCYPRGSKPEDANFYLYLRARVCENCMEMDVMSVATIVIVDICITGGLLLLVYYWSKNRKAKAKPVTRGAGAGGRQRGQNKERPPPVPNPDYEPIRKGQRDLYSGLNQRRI
T1 sequence (P04234 22-171, chain 2 of 4): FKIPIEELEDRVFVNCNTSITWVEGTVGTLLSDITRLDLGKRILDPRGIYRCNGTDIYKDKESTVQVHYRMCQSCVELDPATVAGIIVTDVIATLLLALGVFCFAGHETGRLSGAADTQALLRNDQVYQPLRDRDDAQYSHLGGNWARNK
T1 sequence (P09693 23-182, chain 3 of 4): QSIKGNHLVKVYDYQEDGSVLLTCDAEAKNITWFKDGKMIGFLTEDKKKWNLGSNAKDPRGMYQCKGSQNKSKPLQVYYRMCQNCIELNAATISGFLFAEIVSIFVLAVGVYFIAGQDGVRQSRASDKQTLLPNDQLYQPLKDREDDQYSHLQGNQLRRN
T1 sequence (P20963 22-164, chain 4 of 4): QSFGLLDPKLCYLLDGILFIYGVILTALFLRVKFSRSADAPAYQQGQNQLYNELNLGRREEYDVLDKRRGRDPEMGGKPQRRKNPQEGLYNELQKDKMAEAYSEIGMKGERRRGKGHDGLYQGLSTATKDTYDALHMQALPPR

[2] = target: T1, human CD3 (on human Pan-T cells or …); test: cell-based or functional assay; remark: listed apart in the source

Row | Binder | RTCC Assay, Donor 0, EC50 [1] | RTCC Assay, Donor 0, gMFI max [1] | RTCC Assay, Donor 1, EC50 [1] | RTCC Assay, Donor 1, gMFI max [1] | RTCC Assay, Donor 2, EC50 [1] | RTCC Assay, Donor 2, gMFI max [1] | RTCC Assay, Donor 3, EC50 [1] | RTCC Assay, Donor 3, gMFI max [1] | Cytokine Release Assay (IFNγ), Donor 0, EC50 [2] | Cytokine Release Assay (IFNγ), Donor 0, gMFI max [2] | Cytokine Release Assay (IFNγ), Donor 1, EC50 [2] | Cytokine Release Assay (IFNγ), Donor 1, gMFI max [2] | Cytokine Release Assay (IFNγ), Donor 2, EC50 [2] | Cytokine Release Assay (IFNγ), Donor 2, gMFI max [2] | Cytokine Release Assay (IFNγ), Donor 3, EC50 [2] | Cytokine Release Assay (IFNγ), Donor 3, gMFI max [2]
1 | B1 | 0.054 nM | 38700 gMFI | 0.006 nM | 63000 gMFI | 0.009 nM | 51900 gMFI | 0.011 nM | 82700 gMFI | 0.0418 nM | 1.6e+06 gMFI | 0.191 nM | 45100 gMFI | 0.0396 nM | 66800 gMFI | 0.0403 nM | 475000 gMFI
2 | B2 | 23.7 nM | 59700 gMFI | 5.02 nM | 122000 gMFI | 6.68 nM | 82100 gMFI | 0.299 nM | 104000 gMFI | 0.308 nM | 2.92e+06 gMFI | 14.4 nM | 129000 gMFI | 16.4 nM | 712000 gMFI | 11.4 nM | 1.08e+06 gMFI
3 | B3 | 0.166 nM | 26700 gMFI | 0.027 nM | 65500 gMFI | 0.049 nM | 54600 gMFI | 0.055 nM | 84200 gMFI | ~12.3 nM | 958000 gMFI |  | 4940 gMFI | 0.103 nM | 16200 gMFI | 0.063 nM | 170000 gMFI
4 | B4 | 0.908 nM | 75100 gMFI | 0.04 nM | 81700 gMFI | 0.039 nM | 82900 gMFI | 0.031 nM | 87200 gMFI | 0.045 nM | 2.82e+06 gMFI | 6.99 nM | 912000 gMFI | 2.16 nM | 1.41e+06 gMFI | 0.126 nM | 1.68e+06 gMFI
5 | B5 | 0.479 nM | 23900 gMFI | 0.027 nM | 63000 gMFI | 0.083 nM | 57500 gMFI | 0.377 nM | 78600 gMFI |  | 812000 gMFI |  | 5380 gMFI | 1.91 nM | 27700 gMFI |  | 332000 gMFI

From patent US20260167721A1 (ABLEXIS, published 2026)
